The values below come from patent US20130039923A1 (Novo Nordisk, published 2013).

Where a chain is given by its changes, count along the chain named. Like-named read-outs stand apart in the source and are kept apart here. Ends that are not written are not given here.

The target in assay [1] is T1, recombinant human interleukin-20 (human, UniProt Q9NYY1 25-176).
T1 sequence: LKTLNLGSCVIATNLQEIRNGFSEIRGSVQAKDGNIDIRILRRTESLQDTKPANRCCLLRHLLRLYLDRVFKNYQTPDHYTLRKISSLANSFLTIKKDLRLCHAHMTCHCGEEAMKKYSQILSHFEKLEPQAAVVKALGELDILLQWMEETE
Briefly: cell-based or functional assay.

The target in assay [2] is T2, hIL20 peptide 1 (residues 18-37 of SEQ ID NO: 1) (N-terminal biotin).
T2 peptide: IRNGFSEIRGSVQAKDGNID
In words: SPR, biotinylated peptide on streptavidin chip (500 RU), antibody injected. A general note: SPR reads the build-up and loss of mass on a sensor chip optically.

Assay [3] has as its target T3, hIL20 peptide 2 (residues 28-47 of SEQ ID NO: 1) (N-terminal biotin).
T3 peptide: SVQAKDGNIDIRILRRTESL
The assay is described as above.

Assay [4] concerns the target T4, hIL20 peptide 3 (residues 38-57 of SEQ ID NO. 1) (N-terminal biotin).
T4 peptide: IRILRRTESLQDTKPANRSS
The description is as above.

The target of assay [5] is T5, hIL20 peptide 4 (residues 48-67 of SEQ ID NO. 1) (N-terminal biotin).
T5 peptide: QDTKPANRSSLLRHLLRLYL
The description is as above.

The target in assay [6] is T6, hIL20 peptide 5 (residues 58-78 of SEQ ID NO: 1) (N-terminal biotin).
T6 peptide: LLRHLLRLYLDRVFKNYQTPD
Described as above.

In assay [7] the target is T7, Peptide no. 3 (Figures 7A, 7B) (N-terminus acylated).
T7 construct: peptide array on cellulose
T7 peptide: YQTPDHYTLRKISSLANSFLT
In words: array of terminally truncated, acylated hIL20 peptides on cellulose; fluorescein-labelled antibody; fluorescence as OD.

Assay [8] addresses T8, Peptide no. 13 (Figures 7A, 7B) (N-terminus acylated).
T8 construct: peptide array on cellulose
T8 peptide: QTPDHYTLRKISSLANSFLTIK
The description is as above.

Assay [9] deals with T9, Peptide no. 15 (Figures 7A, 7B) (N-terminus acylated).
T9 construct: peptide array on cellulose
T9 peptide: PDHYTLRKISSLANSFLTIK
The assay is described as above.

Assay [10] deals with T1, recombinant human interleukin-20. Briefly: SPR (Biacore 3000/T100), antibody amine-coupled on CM5, recombinant hIL20 injected 3.125-100 nM, 1:1 Langmuir, 25 C; antibody from hybridoma.
For assay [11], the target named is T10, Peptide no. 2 (Figures 7A, 7B) (N-terminus acylated).
T10 construct: peptide array on cellulose
T10 peptide: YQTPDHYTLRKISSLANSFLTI
In words: array of terminally truncated, acylated hIL20 peptides on cellulose; fluorescein-labelled antibody; fluorescence as OD.

In assay [12] the target is T7, Peptide no. 3 (Figures 7A, 7B). The assay is described as above.
Assay [13] has as its target T11, Peptide no. 4 (Figures 7A, 7B) (N-terminus acylated).
T11 construct: peptide array on cellulose
T11 peptide: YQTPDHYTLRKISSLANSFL
Described as above.

For assay [14], the target named is T12, Peptide no. 5 (Figures 7A, 7B) (also: N-terminus acylated).
T12 construct: peptide array on cellulose
T12 peptide: YQTPDHYTLRKISSLANSF
Described as above.

The target of assay [15] is T13, Peptide no. 6 (Figures 7A, 7B) (also: N-terminus acylated).
T13 construct: peptide array on cellulose
T13 peptide: YQTPDHYTLRKISSLANS
The description is as above.

In assay [16] the target is T14, Peptide no. 7 (Figures 7A, 7B) (also: N-terminus acylated).
T14 construct: peptide array on cellulose
T14 peptide: YQTPDHYTLRKISSLAN
Described as above.

Assay [17] concerns the target T8, Peptide no. 13 (Figures 7A, 7B). The assay is described as above.
Assay [18] concerns the target T15, Peptide no. 14 (Figures 7A, 7B) (N-terminus acylated).
T15 construct: peptide array on cellulose
T15 peptide: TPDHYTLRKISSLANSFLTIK
Described as above.

Assay [19] deals with T9, Peptide no. 15 (Figures 7A, 7B). The description is as above.
The target of assay [20] is T16, Peptide no. 16 (Figures 7A, 7B) (also: N-terminus acylated).
T16 construct: peptide array on cellulose
T16 peptide: DHYTLRKISSLANSFLTIK
The assay is described as above.

The target in assay [21] is T17, Peptide no. 17 (Figures 7A, 7B) (also: N-terminus acylated).
T17 construct: peptide array on cellulose
T17 peptide: HYTLRKISSLANSFLTIK
The assay is described as above.

Assay [22] addresses T18, Peptide no. 18 (Figures 7A, 7B) (also: N-terminus acylated).
T18 construct: peptide array on cellulose
T18 peptide: YTLRKISSLANSFLTIK
Described as above.

The target of assay [23] is T19, Peptide no. 1 (Figures 7A, 7B) (N-terminus acylated).
T19 construct: peptide array on cellulose
T19 peptide: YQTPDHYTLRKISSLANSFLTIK
Described as above.

B1: human anti-hIL20 monoclonal antibody 15D2 (antibody, V domains shown)
VH: QVQLVQSGAEVKRPGASVKVSCKASGYTFTNDIIHWVRQAPGQRLEWMGWINAGYGNTQYSQNFQDRVSITRDTSASTAYMELISLRSEDTAVYYCAREPLWFGESSPHDYYGMDVWGQGTTVTVSS
VL: AIQLTQSPSSLSASVGDRVTITCRASQGISSALAWYQQKPGKAPKLLIYDASSLESGVPSRFSGSGSGTDFTLTISSLQPEDFATYYCQQFNSYPLTFGGGTKVEIKR
notes: also called 15D2-wt; 15D2 wild-type
Take B1: the “IC50, inhibition of IL20 induced proliferation of BaF-3(hIL20R) at 1e-9M hIL20 (assay 1)” value in assay [1] turned out to be 180 nM. Further, in [1], the “IC50, inhibition of IL20 induced proliferation of BaF-3(hIL20R) at 1e-9M hIL20 (assay 2)” value turned out to be 420 nM. Further, the “IC50, inhibition of IL20 induced proliferation of BaF-3(hIL20R) at 1e-9M hIL20 (assay 3)” value in assay [1] was 340 nM. Besides, in [1], the “IC50, inhibition of IL20 induced proliferation of BaF-3(hIL20R) at 1e-9M hIL20 (assay 6)” value came to 120 nM. Besides, the “IC50, inhibition of IL20 induced proliferation of BaF-3(hIL20R) at 1e-9M hIL20 (assay 7)” value in assay [1] stood at 436 nM. The binding result in assay [2] is reported as “no binding (tested: 5 µg/ml)”; in assay [3], “no binding (tested: 5 µg/ml)”; in [4], “no binding (tested: 5 µg/ml)”; in [5], “no binding (tested: 5 µg/ml)”; in assay [6], “no binding (tested: 5 µg/ml)”; in assay [7] it was “binds”. Further, the binding result in assay [8] and in assay [9] was “binds” each time. The Kd in assay [10] came to 0.55 nM. For the same molecule, in assay [10], the koff was 0.00011 s⁻¹. Also, the kon in assay [10] amounted to 190000 M⁻¹ s⁻¹.

B2: human anti-hIL20 monoclonal antibody 5B7 (antibody, human IgG4, V domains shown)
VH: B1 VH with T30S, N31S, D32H, I34M, Q59K, S69T, S106L
VL: B1 VL
notes: described as human IgG4; also called 5B7-wt
B2: in [1], the “IC50, inhibition of IL20 induced proliferation of BaF-3(hIL20R) at 1e-9M hIL20 (assay 1)” value stood at 260 nM. Moreover, in [1], the “IC50, inhibition of IL20 induced proliferation of BaF-3(hIL20R) at 1e-9M hIL20 (assay 2)” value is 4540 nM. Further, the “IC50, inhibition of IL20 induced proliferation of BaF-3(hIL20R) at 1e-9M hIL20 (assay 3)” value in assay [1] amounted to 760 nM. The “IC50, inhibition of IL20 induced proliferation of BaF-3(hIL20R) at 1e-9M hIL20 (assay 6)” value in assay [1] came to 200 nM. The binding result in assay [11], in [12], in assay [13], in [14], in assay [15] and in assay [16] was “binds” each time. In addition, the binding result in assay [17] is “binds”; in assay [18], “binds”; in assay [19], “binds”; in assay [20], “binds”; in assay [21], “binds”; in [22] it was “no binding”. Further, in assay [23], the binding result is given as “binds”. Also, in assay [10], the dissociation constant Kd was 0.75 nM. In addition, the koff in assay [10] came to 0.0001 s⁻¹. The on-rate (kon) in [10] is 140000 M⁻¹ s⁻¹.

What is called Kd is the constant that tells how readily two partners part at equilibrium. The koff is a measure of how fast the partners let go of each other. A word on the kon: it is the second-order rate constant of association.
